Laboratory results: US20250215412A1 (NOVOZYMES A S, published 2025)
Changes are numbered by the printed parent chain. In names and notes the source's numbering stands. Each block holds one binder with its values, some of them ahead of it.

Legend:
Experiment in all cases: cell-based or functional assay
[1] = target: T1, Chryseobacterium sp-62563 deamidase C230H (Chryseobacterium sp-62563)
T1 sequence: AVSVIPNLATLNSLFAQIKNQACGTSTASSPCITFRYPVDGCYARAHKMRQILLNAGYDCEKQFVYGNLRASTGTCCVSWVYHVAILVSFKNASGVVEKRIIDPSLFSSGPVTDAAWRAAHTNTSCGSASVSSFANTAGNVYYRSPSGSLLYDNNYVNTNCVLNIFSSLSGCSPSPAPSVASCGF

[2] = target: T2, Chryseobacterium sp-62563 deamidase C230N (Chryseobacterium sp-62563)
T2 sequence: T1 sequence with H121N

[3] = target: T3, Chryseobacterium sp-62563 deamidase Q126K (Chryseobacterium sp-62563)
T3 sequence: T1 sequence with Q17K, H121C

[4] = target: T4, Chryseobacterium sp-62563 deamidase Q126N (Chryseobacterium sp-62563)
T4 sequence: T1 sequence with Q17N, H121C

[5] = target: T5, Chryseobacterium sp-62563 deamidase Q130L (Chryseobacterium sp-62563)
T5 sequence: T1 sequence with Q21L, H121C

[6] = target: T6, Chryseobacterium sp-62563 deamidase Q130N (Chryseobacterium sp-62563)
T6 sequence: T1 sequence with Q21N, H121C

[7] = target: T7, Chryseobacterium sp-62563 deamidase Q160E (Chryseobacterium sp-62563)
T7 sequence: T1 sequence with Q51E, H121C

[8] = target: T8, Chryseobacterium sp-62563 deamidase Q160W (Chryseobacterium sp-62563)
T8 sequence: T1 sequence with Q51W, H121C

[9] = target: T9, Chryseobacterium sp-62563 deamidase Q172N (Chryseobacterium sp-62563)
T9 sequence: T1 sequence with Q63N, H121C

[10] = target: T10, Chryseobacterium sp-62563 deamidase V111A (Chryseobacterium sp-62563)
T10 chain: T1 sequence with V2A, H121C

[11] = target: T11, Chryseobacterium sp-62563 deamidase C169S (Chryseobacterium sp-62563)
T11 chain: T1 sequence with C60S, H121C

[12] = target: T12, Chryseobacterium sp-62563 deamidase C230S (Chryseobacterium sp-62563)
T12 chain: T1 sequence with H121S

Leakage activity [1]: 0% | Leakage activity [2]: 0% | Relative activity of maturated deamidase (% initial rate) [2]: 42 | Relative activity of maturated deamidase (% initial rate) [3]: > 100 | Relative activity of maturated deamidase (% initial rate) [4]: > 100 | Relative activity of maturated deamidase (% initial rate) [5]: > 100 | Leakage activity [6]: 0% | Relative activity of maturated deamidase (% initial rate) [6]: 79 | Relative activity of maturated deamidase (% initial rate) [7]: > 100 | Leakage activity [8]: 2% | Relative activity of maturated deamidase (% initial rate) [8]: > 100 | Relative activity of maturated deamidase (% initial rate) [9]: 51
B1: Chryseobacterium sp-62563 propeptide F99A (protein)
chain: NQDPNLVAKESNETAMKDFGKTVPVGIEKEDGKFKISFMVTAQPYEIKDSKENAAYISMIKTAVENETPIHVFLKANTNEIAKVDKATDDDIRYFKSVATKEVKEENRK

Leakage activity [10]: 0% | Leakage activity [11]: 0% | Leakage activity [12]: 13%
B2: Chryseobacterium sp-62563 propeptide (first polypeptide, propeptide domain), wildtype (other)
chain: B1 chain with A99F
